Measurements reported in patent US20190194345A1 (UNIVERSITY OF VIRGINIA PATENT FOUNDATION, published 2019).
Substitutions are numbered along the chain they refer to.

B1: anti-human SAS1B murine monoclonal antibody SB1 (antibody, IgG2a, V domains shown)
VH: EVQLQQSGPELVKPGSSVKISCKASGYTFTDYNMDWVKQSHGKSLEWIGAINPNNGGTSYNQKFKGKATLTVDKSSSTAYMELRSLTSEDSAVYYCATNEYWGQGTTLTVSS
VL: NIVMTQSPKSMSMSVGERVTLSCKASENVGTYVSWYQQKPEQSPKLLIYGASNRYTGVPDRFTGSGSATDFTLTISSVQAEDLADYHCGQSYSYPWTFGGGTKLEIK
notes: also called SB1 mAb
B2: anti-human SAS1B murine monoclonal antibody SB4 (antibody, IgG2a, V domains shown)
VH: EVQLQQSGPELVKPGSSVKISCKPSGYTFTDYNMVWMKQSHGKSLEWIGAINPNNGGTTYNQKFKGKATLTVDKSSSTAYMELRSLTSEDSAVYYCAPNWDWFAYWGQGTLVTVSA
VL: DVLMTQTPLSLPVSLGDQASISCRSSQSILHSNGNTYLEWYLQKPGQSPKLLIYKVSNRFSGVPDRFSGSGSGTDFTLKISRVEAEDLGVYYCFQGSHVPFTFGSGTKLEIK
notes: Mouse hybridoma antibody, isotype IgG2a-k; also called SB4 mAb
B3: anti-human SAS1B murine monoclonal antibody SB3 (antibody, IgG2b, V domains shown)
VH: B2 VH with P24A, M37V, I51V, T59S, A97V
VL: B2 VL with I29L, L30V, K50N
notes: also called SB3 mAb
B4: anti-human SAS1B murine monoclonal antibody SB7 (antibody, IgG2b, V domains shown)
VH: B2 VH
VL: B2 VL with T7I
B5: anti-human SAS1B murine monoclonal antibody SB2 (antibody, IgG2b, V domains shown)
VH: B2 VH with P24A, M37V, I51V, T59S, A97V
VL: B2 VL with I29L, L30V, K50N
notes: also called SB2 mAb
B6: anti-human SAS1B murine monoclonal antibody SB5 (antibody, IgG2b, V domains shown)
VH: B2 VH
VL: B2 VL with T7I
notes: Mouse hybridoma antibody, isotype IgG2b-k; also called SB5 mAb
B7: anti-human SAS1B murine monoclonal antibody SB6 (antibody, IgG2b, V domains shown)
VH: B2 VH
VL: B2 VL with T7I

Biological target: T1, SAS1B C-terminus extracellular domain (aa 160-431) (human, UniProt Q6HA08 160-431)
T1 construct: also called C-term extracellular domain
T1 sequence: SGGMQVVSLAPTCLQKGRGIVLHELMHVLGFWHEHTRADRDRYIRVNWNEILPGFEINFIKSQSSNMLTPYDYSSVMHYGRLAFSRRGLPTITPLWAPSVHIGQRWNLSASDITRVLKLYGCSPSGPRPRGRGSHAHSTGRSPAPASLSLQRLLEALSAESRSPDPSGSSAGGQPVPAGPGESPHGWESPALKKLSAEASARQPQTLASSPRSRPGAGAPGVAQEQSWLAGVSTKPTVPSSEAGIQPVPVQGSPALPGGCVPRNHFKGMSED
Assay: western blot (FIG. 22)

binding result	Binder
no binding	B1
no binding	B2
no binding	B3
no binding	B4
no binding	B5
no binding	B6
no binding	B7

Biological target: T2, SAS1B extracellular domain (aa 164-431) polypeptide (human, UniProt Q6HA08 164-431)
T2 construct: mammalian cell-expressed recombinant; also called truncated SAS1B
T2 sequence: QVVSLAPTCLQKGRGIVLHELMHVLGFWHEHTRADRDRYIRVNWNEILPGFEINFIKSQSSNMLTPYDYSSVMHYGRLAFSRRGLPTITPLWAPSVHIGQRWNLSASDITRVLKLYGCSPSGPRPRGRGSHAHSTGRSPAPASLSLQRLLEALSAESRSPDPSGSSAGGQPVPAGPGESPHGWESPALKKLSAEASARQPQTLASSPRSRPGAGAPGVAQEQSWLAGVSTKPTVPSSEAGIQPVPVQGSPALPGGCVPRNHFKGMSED
Assay: western blot, mammalian cell-expressed recombinant SAS1B
Procedure: SAS1B monoclonal antibodies were analyzed with mammalian cell-expressed recombinant SAS1B by western blotting.

binding result	Binder
no binding	B1
no binding	B2
no binding	B3
no binding	B4
no binding	B5
no binding	B6
no binding	B7

Biological target: T3, SAS1B on the surface of live cancer cells (human, UniProt Q6HA08 24-431)
T3 sequence: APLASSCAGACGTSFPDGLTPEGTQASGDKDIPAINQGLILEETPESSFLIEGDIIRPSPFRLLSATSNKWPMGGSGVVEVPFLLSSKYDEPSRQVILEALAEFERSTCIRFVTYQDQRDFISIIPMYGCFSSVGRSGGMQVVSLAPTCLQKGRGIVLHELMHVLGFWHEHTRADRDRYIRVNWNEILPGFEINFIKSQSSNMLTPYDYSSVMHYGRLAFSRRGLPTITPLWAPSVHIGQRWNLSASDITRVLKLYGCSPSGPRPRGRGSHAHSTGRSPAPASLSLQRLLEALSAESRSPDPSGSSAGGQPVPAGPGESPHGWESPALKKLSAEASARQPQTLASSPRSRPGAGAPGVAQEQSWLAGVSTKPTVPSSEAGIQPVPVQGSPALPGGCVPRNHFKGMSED
Assay: cell-based or functional assay

Binder	percent of cells killed at 0.1 nM mAb, ADC assay with anti-mouse Fab-cleavable-Duocarmycin, pancreatic cancer cells 366, ~72 h, cellular ATP [%]	percent of cells killed at 1 nM mAb, ADC assay with 15 nM anti-mouse Fab-cleavable-Duocarmycin, MPanc96 pancreatic cancer cells, ~72 h, cellular ATP [%]	percent of cells killed at 1 nM mAb, ADC assay with anti-mouse Fab-cleavable-Duocarmycin, pancreatic cancer cells 366, ~72 h, cellular ATP [%]	viability at 0.01 nM mAb, ADC assay with Fab-anti-mouse IgG Fc conjugated to Duocarmycin DM (cleavable linker), uterine cancer cells [%]
B2	33	64	77	–
B5	59	80	88	66
B6	49	57	76	87

Biological target: T4, mouse SAS1B (mouse, UniProt Q6HA09 24-435, limits assumed)
T4 sequence (looked up): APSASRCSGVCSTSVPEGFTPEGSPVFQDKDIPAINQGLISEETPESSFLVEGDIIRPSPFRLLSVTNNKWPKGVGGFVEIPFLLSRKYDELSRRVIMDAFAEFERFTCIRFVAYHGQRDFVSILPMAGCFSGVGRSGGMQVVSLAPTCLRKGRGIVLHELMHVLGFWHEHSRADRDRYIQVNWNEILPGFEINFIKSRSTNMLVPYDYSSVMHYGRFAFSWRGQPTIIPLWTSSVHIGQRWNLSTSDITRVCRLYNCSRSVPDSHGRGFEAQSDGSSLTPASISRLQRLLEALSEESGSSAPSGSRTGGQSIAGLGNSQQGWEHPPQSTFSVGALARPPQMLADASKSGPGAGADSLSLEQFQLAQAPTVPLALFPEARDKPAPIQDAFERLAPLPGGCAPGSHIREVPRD
Assay: summary table (Table 1)

binding result	Binder
no binding	B2
no binding	B3
no binding	B4
no binding	B5
no binding	B6
no binding	B7
